Literature values in article PMC3036779.

Target: GABARAP (Homo sapiens) (UniProt O95166)
Chain of UniProt O95166 (O95166 1-116): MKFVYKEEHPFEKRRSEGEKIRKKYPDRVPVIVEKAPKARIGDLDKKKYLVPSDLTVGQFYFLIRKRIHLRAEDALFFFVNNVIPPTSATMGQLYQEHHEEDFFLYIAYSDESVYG

- Kd: 100 µM
Substance: Nix (from UniProt O60238)
